{"source": "paper PMC4968546", "about": "“Heterologous Production and Characterization of Two Glyoxal Oxidases from Pycnoporus cinnabarinus” (Applied and Environmental Microbiology, 2016)", "assay_in_all_cases": "HRP/ABTS coupled H2O2 assay, A420, Lineweaver-Burk", "type_in_all_cases": "biochemical, Trametes cinnabarina", "conditions_in_all_cases": "50 mM sodium 2,2-dimethylsuccinate, pH 6, 30°C, O2 as co-substrate, HRP, 0.1 mM ABTS", "key": {"[1]": {"substrate": "O=CC=O", "description": "(§1) HRP/ABTS coupled H2O2 assay, A420, Lineweaver-Burk on PciGLOX2"}, "[2]": {"substrate": "O=CC(=O)O", "description": "as §1"}, "[3]": {"substrate": "CC(=O)C=O", "description": "as §1"}, "[4]": {"substrate": "OCC(O)CO", "description": "as §1"}, "[5]": {"substrate": "O=CC=O", "description": "(§2) HRP/ABTS coupled H2O2 assay, A420, Lineweaver-Burk on PciGLOX1", "remark": "listed apart in the source"}, "[6]": {"substrate": "O=CC(=O)O", "description": "as §2", "remark": "listed apart in the source"}, "[7]": {"substrate": "CC(=O)C=O", "description": "as §2", "remark": "listed apart in the source"}}}
{"protein": "PciGLOX2 (Trametes cinnabarina) (protein, secreted from Aspergillus niger D15#26; ORF 559 aa; N-terminus APST; N-glycosylated, 70 kDa (about 60 kDa deglycosylated)) APSTPTGWQFNLKAERSGIVALESIVVSPTLVVFFDRATNDPLQINNHSAWGALWNLETSTVRALDVLTNSFCASGALLSNGTMASIGGDPNGFPGNPAIHPGTQAIRLFEPCDSPTGEGCTLFEDPVTLHLLEKRWYPSSVRIFDGSLLIVGGMHEETPFYNTDPALSFEFFPPKESTPRPSEFLNRSLPANLFPRVFALPDGKVFMVANNQSIIYDIEANTERILPDIPNNVRVTNPIDGSAILLPLSPPDFVPEVLVCGGTQTDTIDPSLLTSQTPASSQCSRIRLDEEGIARGWEVEHMLEGRMMPELVHLPNGQVLIANGARTGFAAIASVSDPVGGSNADHAVLVPSLYTPDAPLGTRISNVGLPSSGIARVYHSSITLTPQGNFLIAGSNPNNNSSVTAGVKFPSEFRVQTLDPPFMFVERPKILSMPKKLAFGKSFTVPIAVPSTLAHPGAKVQVSLMDLGFSSHAFHSSARLVFMNAKISQDGKSLTFTTPPNGRVYPPGPATIFLTIDDVTSEGAWVMMGSGNPPPTLE", "values": [{"measurement": "Km", "setting": "[1]", "result": 2200, "unit": "µM"}, {"measurement": "Vmax", "setting": "[1]", "result": 15, "unit": "µmol/min/mg"}, {"measurement": "kcat", "setting": "[1]", "result": 1.4, "unit": "s⁻¹"}, {"measurement": "kcat/Km", "setting": "[1]", "result": 636, "unit": "M⁻¹ s⁻¹"}, {"measurement": "Km", "setting": "[2]", "result": 100, "unit": "µM"}, {"measurement": "Vmax", "setting": "[2]", "result": 17.9, "unit": "µmol/min/mg"}, {"measurement": "kcat", "setting": "[2]", "result": 1.7, "unit": "s⁻¹"}, {"measurement": "kcat/Km", "setting": "[2]", "result": 17000, "unit": "M⁻¹ s⁻¹"}, {"measurement": "Km", "setting": "[3]", "result": 200, "unit": "µM"}, {"measurement": "kcat", "setting": "[3]", "result": 1.4, "unit": "s⁻¹"}, {"measurement": "Km", "setting": "[4]", "result": 9400, "unit": "µM"}, {"measurement": "Vmax", "setting": "[4]", "result": 6.42, "unit": "µmol/min/mg"}, {"measurement": "kcat", "setting": "[4]", "result": 0.6, "unit": "s⁻¹"}, {"measurement": "kcat/Km", "setting": "[4]", "result": 63, "unit": "M⁻¹ s⁻¹"}]}
{"protein": "PciGLOX1 (Trametes cinnabarina) (protein, secreted from Aspergillus niger D15#26; native 18-aa signal peptide … replaced by A. niger glucoamylase prepro (removed in processing); ORF 556 aa; N-terminus APSA; N-glycosylated, 70 kDa (about 60 kDa deglycosylated)) APSAPGWRFDLKAERSGIVALESIVVSPTLVLWFDRASDDPLQINNHSAWGALWNLETSTVRPLNVLTNSFCASGALLSNGSMASVGGDPRGFPGNPAINPGNQAIRIFEPCASPTGDGCTVFEDPQTLHLLEDRWYPSSIRIFDGSLLIVGGTHVNENFYNLHPANSFEFFPPKESTPRPSAFLERSLPANLFPRIFALPDGKVFMVANNQSIIYDIEANTERILPDIPNNVRVTNPIDGSAILLPLTPPDYIPEVLVCGGTSTDPLDPSLLSSQTPATTQCSRIRLDEEGIAKGWQVEHMLEPRTMPELVHIPNGQILIANGARTGFAAIKQVQDPIGNSNSDHAVLVPSIYTPDAPLGQRISNAGMPSSGIARVYHSSITLTPQGNFLIAGSNPNGNTTVGPGVKFPSEFRVQTLDPPFMFVERPKILNTPEKLAFNKTFTVPISVPSTLASPGAKVQVSLMDLGFSSHAFHSSARLVFMDATISRDRRSLTFTTPPNGRVFPPGPATVFLTIDGVTSEGAWVMMGSGNSPPTLE", "values": [{"measurement": "Km", "setting": "[5]", "result": 13100, "unit": "µM"}, {"measurement": "Vmax", "setting": "[5]", "result": 85.3, "unit": "µmol/min/mg"}, {"measurement": "kcat", "setting": "[5]", "result": 83, "unit": "s⁻¹"}, {"measurement": "kcat/Km", "setting": "[5]", "result": 6340, "unit": "M⁻¹ s⁻¹"}, {"measurement": "Km", "setting": "[6]", "result": 88, "unit": "µM"}, {"measurement": "Vmax", "setting": "[6]", "result": 192, "unit": "µmol/min/mg"}, {"measurement": "kcat", "setting": "[6]", "result": 188, "unit": "s⁻¹"}, {"measurement": "kcat/Km", "setting": "[6]", "result": "2.14e+06", "unit": "M⁻¹ s⁻¹"}, {"measurement": "Km", "setting": "[7]", "result": 1300, "unit": "µM"}, {"measurement": "Vmax", "setting": "[7]", "result": 77.3, "unit": "µmol/min/mg"}, {"measurement": "kcat", "setting": "[7]", "result": 76, "unit": "s⁻¹"}, {"measurement": "kcat/Km", "setting": "[7]", "result": 58500, "unit": "M⁻¹ s⁻¹"}]}
